Values of other authors as cited in paper PMC7287924.

Biological target: CD47 (Homo sapiens) (UniProt Q08722)
Sequence (Q08722 19-323): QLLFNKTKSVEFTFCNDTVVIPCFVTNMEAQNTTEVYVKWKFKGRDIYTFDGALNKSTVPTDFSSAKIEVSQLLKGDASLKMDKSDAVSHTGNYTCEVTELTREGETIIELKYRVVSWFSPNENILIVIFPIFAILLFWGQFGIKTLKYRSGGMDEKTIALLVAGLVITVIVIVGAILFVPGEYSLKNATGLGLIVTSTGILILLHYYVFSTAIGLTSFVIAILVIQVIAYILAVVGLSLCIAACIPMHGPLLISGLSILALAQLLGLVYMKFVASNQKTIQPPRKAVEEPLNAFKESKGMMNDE

TSP1, sequence (P07996 19-1170): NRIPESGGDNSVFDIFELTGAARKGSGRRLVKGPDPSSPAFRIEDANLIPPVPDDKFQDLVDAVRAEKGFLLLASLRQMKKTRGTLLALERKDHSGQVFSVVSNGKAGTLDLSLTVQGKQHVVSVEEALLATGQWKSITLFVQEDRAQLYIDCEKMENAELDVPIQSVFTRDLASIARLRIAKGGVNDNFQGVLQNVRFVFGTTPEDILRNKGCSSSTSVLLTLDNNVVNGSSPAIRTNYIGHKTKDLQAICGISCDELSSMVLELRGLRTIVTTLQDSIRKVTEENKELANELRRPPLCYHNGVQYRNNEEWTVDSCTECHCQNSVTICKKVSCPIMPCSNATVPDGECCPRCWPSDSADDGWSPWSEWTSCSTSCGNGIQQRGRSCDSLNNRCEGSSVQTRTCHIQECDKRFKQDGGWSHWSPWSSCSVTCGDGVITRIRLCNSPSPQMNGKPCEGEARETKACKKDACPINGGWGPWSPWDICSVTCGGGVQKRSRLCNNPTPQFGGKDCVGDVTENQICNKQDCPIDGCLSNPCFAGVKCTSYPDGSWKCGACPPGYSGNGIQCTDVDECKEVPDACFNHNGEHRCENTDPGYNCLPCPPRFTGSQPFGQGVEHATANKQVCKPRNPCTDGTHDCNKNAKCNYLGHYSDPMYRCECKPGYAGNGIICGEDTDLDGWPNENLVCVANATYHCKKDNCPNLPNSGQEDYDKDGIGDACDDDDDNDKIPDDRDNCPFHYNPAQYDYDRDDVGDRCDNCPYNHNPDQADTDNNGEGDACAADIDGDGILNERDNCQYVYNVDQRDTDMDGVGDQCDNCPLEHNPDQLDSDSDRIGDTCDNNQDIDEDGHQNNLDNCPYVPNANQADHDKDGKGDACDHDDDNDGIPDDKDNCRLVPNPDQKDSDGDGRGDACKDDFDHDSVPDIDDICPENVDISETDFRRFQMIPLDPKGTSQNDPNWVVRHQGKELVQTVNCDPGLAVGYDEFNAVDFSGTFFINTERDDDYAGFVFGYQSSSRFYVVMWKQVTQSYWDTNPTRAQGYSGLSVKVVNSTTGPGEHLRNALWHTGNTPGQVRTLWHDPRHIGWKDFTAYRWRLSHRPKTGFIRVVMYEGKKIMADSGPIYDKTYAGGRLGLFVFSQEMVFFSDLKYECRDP

Substance: TSP1 (from UniProt P07996)
- Kd: 0.01 nM
